Source: publication doi:10.1101/2020.11.02.20223404

Biological target: angiotensin-converting enzyme 2 (ACE2) (human) (UniProt Q9BYF1)
Test: other fluorescence titration

UniProt Q9BYF1, sequence (Q9BYF1 18-805): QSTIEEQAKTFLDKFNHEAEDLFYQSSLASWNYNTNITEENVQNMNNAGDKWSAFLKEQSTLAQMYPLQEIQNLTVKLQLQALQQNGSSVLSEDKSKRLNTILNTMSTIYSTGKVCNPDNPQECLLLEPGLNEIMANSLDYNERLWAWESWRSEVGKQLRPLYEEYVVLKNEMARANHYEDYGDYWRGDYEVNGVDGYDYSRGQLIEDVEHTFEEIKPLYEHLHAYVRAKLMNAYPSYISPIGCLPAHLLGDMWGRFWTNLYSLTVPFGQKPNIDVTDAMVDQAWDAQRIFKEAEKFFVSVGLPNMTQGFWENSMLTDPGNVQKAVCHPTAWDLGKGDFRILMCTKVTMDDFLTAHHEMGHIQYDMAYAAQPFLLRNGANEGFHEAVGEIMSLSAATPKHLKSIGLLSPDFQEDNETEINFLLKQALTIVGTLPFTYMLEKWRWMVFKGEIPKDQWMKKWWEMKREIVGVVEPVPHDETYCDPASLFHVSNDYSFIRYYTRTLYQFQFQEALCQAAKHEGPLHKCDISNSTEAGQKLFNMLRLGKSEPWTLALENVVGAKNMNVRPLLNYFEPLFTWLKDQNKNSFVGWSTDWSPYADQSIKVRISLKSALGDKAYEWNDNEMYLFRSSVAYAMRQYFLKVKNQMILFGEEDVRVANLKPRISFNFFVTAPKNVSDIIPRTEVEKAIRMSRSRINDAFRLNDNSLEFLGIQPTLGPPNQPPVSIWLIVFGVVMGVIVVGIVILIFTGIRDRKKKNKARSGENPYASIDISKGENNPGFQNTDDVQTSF

SARS-CoV-1 spike receptor-binding domain (S RBD) (domain or fragment)
ΔF/F0 of the 1130 nm SWCNT emission peak after 90 min, 10 mg/L: 88.4%
